Assay results from patent US20240343802A1.

Target: CD3 on CD3-expressing T cells (Jurkat, HPB-ALL) (UniProt P07766)
Assay: FACS, HBP-ALL T cells
Design: Bmax: unit not given here

Bmax: 13300
Kd: 0.461 nM
Substance: OKT3 (commercial anti-CD3 antibody)
